Two molecules from article PMC13317680, “Molecular architecture of the human citrate synthase–malate dehydrogenase 2 metabolon” (Acta Crystallographica Section D: Structural Biology, 2026) can be followed below.

A word on the stoichiometry N: it is the number of molecules, sites or subunits per partner or assembly.

Data set [1] concerns the target Human citrate synthase (human) (UniProt O75390).
For data set [2] the target is unchanged. Briefly: SEC-SAXS; glutaraldehyde cross-linked hMDH2-hCS; Shodex KW-803, 50 mM sodium phosphate pH 7, 100 mM NaCl, 2 mM DTT, 2% glycerol, 10°C; LightDock models fitted with FoXS.
Data set [3] deals with the molecule itself. Briefly: SAXS (SEC-SAXS and HT-SAXS); hCS alone, 0.07-2.0 mg/ml in 50 mM Tris-HCl, 100 mM NaCl, 0.1 mM EDTA pH 7.5, 10°C; data compared with crystal structures and a normal-mode model (FoXS).

As to “Human mitochondrial malate dehydrogenase 2 (from UniProt P40926-1 25-338) (enzyme)”, the NADH production (A340), hMDH2 titrated into 2.5 µM hCS at hMDH2:hCS molar ratios 0:1 to 3:1; no saturation (hMDH2 dimer per hCS dimer) in data set [1] is above 1. For the same molecule, the stoichiometry N (hMDH2 (dimer) per hCS (dimer)) in data set [2] amounted to 2.

B1: Human citrate synthase (enzyme, UniProt O75390 28-466, looked up)
chain: ASSTNLKDILADLIPKEQARIKTFRQQHGKTVVGQITVDMMYGGMRGMKGLVYETSVLDPDEGIRFRGFSIPECQKLLPKAKGGEEPLPEGLFWLLVTGHIPTEEQVSWLSKEWAKRAALPSHVVTMLDNFPTNLHPMSQLSAAVTALNSESNFARAYAQGISRTKYWELIYEDSMDLIAKLPCVAAKIYRNLYREGSGIGAIDSNLDWSHNFTNMLGYTDHQFTELTRLYLTIHSDHEGGNVSAHTSHLVGSALSDPYLSFAAAMNGLAGPLHGLANQEVLVWLTQLQKEVGKDVSDEKLRDYIWNTLNSGRVVPGYGHAVLRKTDPRYTCQREFALKHLPNDPMFKLVAQLYKIVPNVLLEQGKAKNPWPNVDAHSGVLLQYYGMTEMNYYTVLFGVSRALGVLAQLIWSRALGFPLERPKSMSTEGLMKFVDSKSG
notes: Human citrate synthase, mitochondrial, UniProt O75390, amino acids 28-466; Dimer in solution by SAXS; PDB 5uzr was the starting model for the SAXS fit; also called hCS; CS; source: E. coli, purified (HisTrap nickel column, Sephacryl S200 SEC)
With B1, the “stoichiometry N” value in data set [3] was found to be 2.
